Data: patent US10450368 (DUKE UNIVERSITY, dated 2019)

T1: Jo-1 (UniProt P12081 1-509)
T1 sequence: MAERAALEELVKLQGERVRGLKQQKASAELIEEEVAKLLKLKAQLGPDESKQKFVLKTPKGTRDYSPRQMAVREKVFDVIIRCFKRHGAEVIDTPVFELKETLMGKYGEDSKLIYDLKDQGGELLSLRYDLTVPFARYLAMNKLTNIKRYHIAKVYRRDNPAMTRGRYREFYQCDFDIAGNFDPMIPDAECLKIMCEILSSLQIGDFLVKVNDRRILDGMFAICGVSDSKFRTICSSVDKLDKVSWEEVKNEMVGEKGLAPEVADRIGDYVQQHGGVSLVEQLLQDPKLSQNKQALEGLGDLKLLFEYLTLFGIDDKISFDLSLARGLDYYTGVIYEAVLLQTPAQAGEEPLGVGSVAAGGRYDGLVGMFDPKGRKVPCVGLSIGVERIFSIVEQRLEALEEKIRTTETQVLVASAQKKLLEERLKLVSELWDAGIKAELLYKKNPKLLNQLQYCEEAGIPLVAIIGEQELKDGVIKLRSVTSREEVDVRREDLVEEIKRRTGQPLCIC

T2: SSB (UniProt P05455 1-408)
T2 sequence: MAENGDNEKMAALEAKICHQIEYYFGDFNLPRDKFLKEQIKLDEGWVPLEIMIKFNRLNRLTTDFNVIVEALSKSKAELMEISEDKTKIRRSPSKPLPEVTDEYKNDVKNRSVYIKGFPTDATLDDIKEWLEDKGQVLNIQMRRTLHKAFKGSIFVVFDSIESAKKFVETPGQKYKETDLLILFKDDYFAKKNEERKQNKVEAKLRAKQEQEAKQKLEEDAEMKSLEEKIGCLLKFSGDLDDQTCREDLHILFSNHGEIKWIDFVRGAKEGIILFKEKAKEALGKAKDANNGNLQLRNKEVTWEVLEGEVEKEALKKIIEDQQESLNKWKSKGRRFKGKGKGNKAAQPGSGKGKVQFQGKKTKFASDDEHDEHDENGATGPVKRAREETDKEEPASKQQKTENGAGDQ

T3: Scl-70 (UniProt P11387 1-765)
T3 sequence: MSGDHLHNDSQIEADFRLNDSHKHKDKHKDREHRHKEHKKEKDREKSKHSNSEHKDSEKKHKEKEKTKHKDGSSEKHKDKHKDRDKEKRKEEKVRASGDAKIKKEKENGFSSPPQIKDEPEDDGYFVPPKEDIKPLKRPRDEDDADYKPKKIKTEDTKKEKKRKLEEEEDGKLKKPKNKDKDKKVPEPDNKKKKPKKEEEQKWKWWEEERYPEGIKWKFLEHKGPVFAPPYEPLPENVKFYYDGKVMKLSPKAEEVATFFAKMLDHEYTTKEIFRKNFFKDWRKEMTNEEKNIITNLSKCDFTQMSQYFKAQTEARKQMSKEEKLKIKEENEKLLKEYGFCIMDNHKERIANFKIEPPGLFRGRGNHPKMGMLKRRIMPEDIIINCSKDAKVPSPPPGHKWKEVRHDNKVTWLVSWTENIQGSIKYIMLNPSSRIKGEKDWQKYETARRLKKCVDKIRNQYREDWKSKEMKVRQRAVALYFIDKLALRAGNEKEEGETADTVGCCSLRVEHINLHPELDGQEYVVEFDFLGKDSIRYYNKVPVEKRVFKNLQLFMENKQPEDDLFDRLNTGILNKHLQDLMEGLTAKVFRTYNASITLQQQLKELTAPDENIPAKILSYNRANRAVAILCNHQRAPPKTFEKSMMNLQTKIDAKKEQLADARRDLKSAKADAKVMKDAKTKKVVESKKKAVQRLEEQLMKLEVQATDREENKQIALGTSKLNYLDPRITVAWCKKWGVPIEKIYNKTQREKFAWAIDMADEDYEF

B1: CH557 (antibody, V domains shown)
VH: QVRLAQYGGGVKRLGATMTLSCVASGYTFNDYYIHWVRQAPGQGFELLGYIDPANGRPDYAGALRERLSFYRDKSMETLYMDLRSLRYDDTAMYYCVRNVGTAGSLLHYDHWGSGSPVIVSS
VL: EIVLTQSPATLSASPGERVTLTCRASRSVRNNVAWYQHKGGQSPRLLIYDASTRAAGVPARFSGSASGTEFTLAISNLESEDFTVYFCLQYNNWWTFGQGTRVDIK
notes: also called CH235.12; CH557_4A/293i
B2: CH235 (antibody, V domains shown)
VH: QVQLVQSGAEVKKPGASVTVSCQASGYTFTNYYVHWVRQAPGQGLQLMGWIDPSWGRTNYAQNFQGRITMTRDTSTSTVYMEMRSLRSEDTAVYYCARNVATEGSLLHYDYWGQGTLVTVSA
VL: EIVLTQSPATLSVSPGERATLSCRASQSVRSNLAWYQQRPGQAPRLLIYGTSTRATGVPARFSGRGSGTEFTLAISSMQSEDFAVYLCLQYNNWWTFGQGTKVEIK
notes: also called CH235_4A
B3: CH241 (antibody, V domains shown)
VH: QVQLVQSGAAVKKPGASVRVSCKASGYTFTSSHIHWVRQAPGQGPEWMGMIDPSVGRPTTAGKFQGRVTMTRDRYTSTAYMDLSSLRSEDTAVYYCARSVETTGSLLYFDYWGQGTLITVSS
VL: EIVLTQSPATLSVSPGERATLSCRASQSVRSNIAWYQQKPGQAPRLLIHGASTRATGIPGRFSGSGSGPEFTLAISSVQSEDFAVYYCQQYNDWWTFGQGTKVEIK
B4: CH493 (antibody, V domains shown)
VH: QVRLLQYGGGVKRPGASMTISCVASGYNFNDYYIHWVRQAPGQGLELMGWIDPSGGRTDYAGAFGDRVSMYRDKSMNTLYMDLRSLRSGDTAMYYCVRNVGTAGSLLHYDHWGLGVMVTVSS
VL: EIVLTQSPATLSVSPGERVTLSCRASQSVRNNLAWYRQKRGQAPRLLIYGASTRATGIPARFSGSGSGTEFTLTISSMQSEDFAVYYCQQYNNWWTFGQGTKVEIK
notes: also called CH235.9; DH493

Biological target: CH0505_CON D7gp120/293i
Assay: ELISA

Row | Binder | LogAUC
1 | B1 | 8.39
2 | B2 | 9.73
3 | B3 | 13.3
4 | B4 | 8.67

Biological target: T4, CH505w020.14D8gp120
T4 construct: also called CH505w20.14 gp120
Assay: ELISA

Row | Binder | LogAUC
5 | B1 | 8.33
6 | B2 | 9.91
7 | B3 | 13.1
8 | B4 | 8.15

Biological target: T5, CH505w030.20D8gp120/293F
T5 construct: also called CH505w30.20 gp120
Assay: ELISA

Row | Binder | LogAUC
9 | B1 | 8.59
10 | B2 | 8.33
11 | B3 | 8.03
12 | B4 | 8.09

Biological target: T6, CH505.w30.12D8gp120
T6 construct: also called CH505w30.12 gp120
Assay: ELISA

Row | Binder | LogAUC
13 | B1 | 2.37
14 | B2 | 7.28
15 | B3 | 9.6
16 | B4 | 3.17

Biological target: CH505w136.B18D8gp120
Assay: ELISA

Row | Binder | LogAUC
17 | B1 | 8.31
18 | B2 | 7.53
19 | B3 | 0.89
20 | B4 | 5.76

Biological target: CH505.M5D8gp120293F
Assay: ELISA

Row | Binder | LogAUC
21 | B1 | 8.2
22 | B2 | 11.4
23 | B3 | 14.5
24 | B4 | 9.26

Biological target: CH505.M10D8gp120
Assay: ELISA

Row | Binder | LogAUC
25 | B1 | 7.63
26 | B2 | 10.6
27 | B3 | 14.4
28 | B4 | 10.2

Biological target: CH505.M11D8gp120/293F
Assay: ELISA

Row | Binder | LogAUC
29 | B1 | 7.71
30 | B2 | 7.59
31 | B3 | 9.68
32 | B4 | 8.26

Biological target: CH505.M19D8gp120
Assay: ELISA

Row | Binder | LogAUC
33 | B1 | 4.61
34 | B2 | 7.13
35 | B3 | 10.4
36 | B4 | 5.95

Biological target: CH505.M21D8gp120/293F
Assay: ELISA

Row | Binder | LogAUC
37 | B1 | 0.19
38 | B2 | 0
39 | B3 | 4.82
40 | B4 | 1.13

Biological target: CH505.M9D8gp120/293F
Assay: ELISA

Row | Binder | LogAUC
41 | B1 | 0.38
42 | B2 | 0
43 | B3 | 0
44 | B4 | 1.31

Biological target: CH505.M7D8gp120/293F
Assay: ELISA

Row | Binder | LogAUC
45 | B1 | 0.69
46 | B2 | 0
47 | B3 | 0
48 | B4 | 0.8

Biological target: T7, CH505.TF mutant gp120 M6 (HIV-1)
T7 construct: domain: gp120
Assay: ELISA

Row | Binder | LogAUC
49 | B1 | 8.21
50 | B2 | 9.46
51 | B3 | 13.2
52 | B4 | 8.11

Biological target: T8, CH505.TF mutant gp120 M8 (HIV-1)
T8 construct: domain: gp120
Assay: ELISA

Row | Binder | LogAUC
53 | B1 | 1.14
54 | B2 | 0
55 | B3 | 2.18
56 | B4 | 4.36

Biological target: T9, CH505.TF mutant gp120 M20 (HIV-1)
T9 construct: domain: gp120
Assay: ELISA

Row | Binder | LogAUC
57 | B1 | 0
58 | B2 | 0
59 | B3 | 2.15
60 | B4 | 1.04

Biological target: T10, Sm (Smith antigen)
T10 construct: Protein complex
Assay: AtheNA, Ab 6.25 ug/ml

Row | Binder | AtheNA signal
61 | B2 | 5 relative luminescence units
62 | B3 | 4 relative luminescence units

Biological target: T1, Jo-1
Assay: AtheNA, Ab 6.25 ug/ml

Row | Binder | AtheNA signal
63 | B2 | 2 relative luminescence units
64 | B3 | 2 relative luminescence units

Biological target: T2, SSB
Assay: ELISA, LogAUC grade

Row | Binder | binding result
65 | B1 | no binding
66 | B2 | no binding
67 | B3 | no binding

Biological target: T3, Scl-70
Assay: ELISA, LogAUC grade

Row | Binder | binding result
68 | B1 | no binding
69 | B2 | no binding
70 | B3 | no binding

Biological target: T1, Jo-1
Assay: ELISA, LogAUC grade

Row | Binder | binding result
71 | B1 | no binding
72 | B2 | no binding
73 | B3 | no binding

Biological target: T11, HIV-1 CH505 transmitted/founder gp120 Env (HIV-1)
T11 construct: domain: gp120; also called CH505.TF gp120; CH505 TF gp120 Env
Assay: competition ELISA, blocking of sCD4 binding to gp120

Row | Binder | IC50 [µg/mL]
74 | B2 | 26.3
75 | B3 | 2.6
